{
  "source": "the supplement of paper PMC12042874",
  "note": "± gives the uncertainty stated by the source.",
  "data": [
    {"experiment": "amyloid nucleation score (Sup35N fusion, yeast selection) (log enrichment); library NNK3; higher = more nucleation; inactive = no reads after selection", "outline": "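After 24 hours of induction with 100 μM copper sulfate, psi-negative yeast expressing peptides of 20 random codons fused to Sup35N were grown for 7 days at 30°C on medium lacking adenine and uracil. Input and output plasmid inserts were sequenced with Illumina, and sequences with under 100 input reads were discarded. Scores for nucleation are the DiMSum log enrichment of output over input reads, centred on the mode score of non-aggregating sequences.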", "values": [
      {"substance": "SSSCVSSGCDVWA", "amyloid nucleation score": "inactive"},
      {"substance": "AEIVCICV", "amyloid nucleation score": "1.11 ± 0.17"},
      {"substance": "GGMHRAYMESVSDVYLRKWW", "amyloid nucleation score": "0.308 ± 0.21"},
      {"substance": "WQTTDRLFSVKKSALLVGFC", "amyloid nucleation score": "inactive"},
      {"substance": "ALWNTFFLCENTFRMVGFVC", "amyloid nucleation score": "inactive"},
      {"substance": "IRPSHYIYLRTN", "amyloid nucleation score": "inactive"},
      {"substance": "LDACILRFARCLEGVDYADK", "amyloid nucleation score": "inactive"},
      {"substance": "SVSLLLRFVILLCTFVQYGW", "amyloid nucleation score": "inactive"},
      {"substance": "CFIKSMRVVMVILPFAPCLK", "amyloid nucleation score": "inactive"},
      {"substance": "RGIWGLSLYGVISNVSGLSK", "amyloid nucleation score": "-0.103 ± 0.43"},
      {"substance": "LAGTTSASWGGS", "amyloid nucleation score": "inactive"},
      {"substance": "RPGVC", "amyloid nucleation score": "inactive"},
      {"substance": "DYNILQSRMSYRAYMCSLHV", "amyloid nucleation score": "inactive"},
      {"substance": "NEFGEVLDSN", "amyloid nucleation score": "inactive"},
      {"substance": "PLHSWKQCALRRVSSNTSSG", "amyloid nucleation score": "1.75 ± 0.093"},
      {"substance": "DARNET", "amyloid nucleation score": "inactive"},
      {"substance": "SCDNYVVLTHEFVLSHSKSL", "amyloid nucleation score": "1.01 ± 0.14"},
      {"substance": "NERFERMKRKSVQLPLYVVM", "amyloid nucleation score": "-0.009 ± 0.53"},
      {"substance": "KLILFLTRVFRSFQVSWRQF", "amyloid nucleation score": "inactive"},
      {"substance": "FVLMPSSFYNYWTTSEDFRS", "amyloid nucleation score": "inactive"},
      {"substance": "LSCFNSVAHCDVNSGMFQIV", "amyloid nucleation score": "inactive"},
      {"substance": "YKGFKRIGLEGQFVSSYLFY", "amyloid nucleation score": "inactive"},
      {"substance": "PAPHRIKRIL", "amyloid nucleation score": "inactive"},
      {"substance": "NAFDFSL", "amyloid nucleation score": "inactive"},
      {"substance": "LHLHFAIKKLGLRLSTKWWV", "amyloid nucleation score": "inactive"},
      {"substance": "ALFLIFSRELHSNDNLLECS", "amyloid nucleation score": "0.367 ± 0.14"},
      {"substance": "QELLPIRYLVE", "amyloid nucleation score": "inactive"},
      {"substance": "RTLAVSIRNQWPYIGLARDT", "amyloid nucleation score": "inactive"},
      {"substance": "VFNLLYVGFHVDSIGVGCVI", "amyloid nucleation score": "1.97 ± 0.096"},
      {"substance": "VVFENLDRAFVYRRLDPIRC", "amyloid nucleation score": "inactive"},
      {"substance": "LSRSWCWRR", "amyloid nucleation score": "inactive"},
      {"substance": "LWVSLFVSDVTRLFCLGFVT", "amyloid nucleation score": "inactive"},
      {"substance": "IIITVVGSCYSV", "amyloid nucleation score": "1.7 ± 0.071"},
      {"substance": "SRIFSGISPDVTDPS", "amyloid nucleation score": "inactive"},
      {"substance": "PVFFM", "amyloid nucleation score": "inactive"},
      {"substance": "GVAIAYHEFVDCSFFNYNIV", "amyloid nucleation score": "2.38 ± 0.054"},
      {"substance": "YGRLLVGFLTITV", "amyloid nucleation score": "inactive"},
      {"substance": "FWDTKFEFFQLHRVWIPLLV", "amyloid nucleation score": "inactive"},
      {"substance": "SMLGHKIN", "amyloid nucleation score": "inactive"},
      {"substance": "RDGTYRWSDLKTICLIRVSW", "amyloid nucleation score": "inactive"},
      {"substance": "LSSVKCSKWSIFMYMRQYIW", "amyloid nucleation score": "inactive"},
      {"substance": "CGFDMY", "amyloid nucleation score": "1.84 ± 0.094"},
      {"substance": "FLFSWEKFVCLCCILY", "amyloid nucleation score": "0.32 ± 0.49"},
      {"substance": "QSDRVPRILLGKRFKSPLSF", "amyloid nucleation score": "inactive"},
      {"substance": "CKMRVILKFIKNL", "amyloid nucleation score": "0.48 ± 0.16"},
      {"substance": "HAAYGKCLQWFTRLVCYPVA", "amyloid nucleation score": "inactive"},
      {"substance": "CGGANVLYRVQYDPWRS", "amyloid nucleation score": "inactive"},
      {"substance": "FGRLTV", "amyloid nucleation score": "inactive"},
      {"substance": "RFRSRS", "amyloid nucleation score": "-0.02 ± 1.1"},
      {"substance": "WWHVIMYTGHKCNLSCDSVG", "amyloid nucleation score": "inactive"},
      {"substance": "LTMALYWTCSLTHILSYGID", "amyloid nucleation score": "0.062 ± 0.23"},
      {"substance": "HEIPETQFCSIWFDSVCWCL", "amyloid nucleation score": "inactive"},
      {"substance": "MSHDTFDV", "amyloid nucleation score": "inactive"},
      {"substance": "FNPKSWKVTKLYFKMYNRLD", "amyloid nucleation score": "inactive"},
      {"substance": "QLTLACSRLQAGLSSQRHLS", "amyloid nucleation score": "inactive"},
      {"substance": "SALVLPRSVSVDLIGVWDFK", "amyloid nucleation score": "inactive"},
      {"substance": "SSSGY", "amyloid nucleation score": "-0.007 ± 1"},
      {"substance": "INQRVYESWLAFV", "amyloid nucleation score": "inactive"},
      {"substance": "VEMGDSVRSRGYSISVFLRK", "amyloid nucleation score": "inactive"},
      {"substance": "YRYLVFLRLNLSLRILFGFK", "amyloid nucleation score": "inactive"},
      {"substance": "IYTNWYEFRV", "amyloid nucleation score": "inactive"},
      {"substance": "FAYLFPCMLLPRSLFAFRIN", "amyloid nucleation score": "inactive"},
      {"substance": "QKIIVSR", "amyloid nucleation score": "inactive"},
      {"substance": "HSLHMKVCCWGSCEIFSMVR", "amyloid nucleation score": "inactive"},
      {"substance": "RKTSV", "amyloid nucleation score": "-0.071 ± 0.28"},
      {"substance": "RSAFGIGFPGGYCVLDHYER", "amyloid nucleation score": "inactive"},
      {"substance": "SRCFLKKYCFLMTSILVRGI", "amyloid nucleation score": "inactive"},
      {"substance": "NMYSISTLHRKLADPVCSV", "amyloid nucleation score": "inactive"},
      {"substance": "WSVITT", "amyloid nucleation score": "inactive"},
      {"substance": "HHNTYCYVLFELFTV", "amyloid nucleation score": "0.505 ± 0.49"},
      {"substance": "YQLFWRLALFCPVYGCVYLM", "amyloid nucleation score": "-0.027 ± 0.35"},
      {"substance": "VVKAFYRARELGFRAGLRTD", "amyloid nucleation score": "inactive"},
      {"substance": "NLVCQLLGRQRDPINPVVCW", "amyloid nucleation score": "inactive"},
      {"substance": "RIRVSNVCSHQFWLIYGNDT", "amyloid nucleation score": "2.15 ± 0.057"},
      {"substance": "KLICKERYVVYSVILVLKEL", "amyloid nucleation score": "inactive"},
      {"substance": "MCTNYYITCRSKSCVICRRI", "amyloid nucleation score": "2.31 ± 0.059"},
      {"substance": "SVEMIPDSGLSVRMGFEGLV", "amyloid nucleation score": "inactive"},
      {"substance": "IARKQPLLSMATTSSQVFRA", "amyloid nucleation score": "inactive"},
      {"substance": "ALNIPVTRGTTPAWFLILLD", "amyloid nucleation score": "inactive"},
      {"substance": "ASILRTKMLVCKGGKILQLQ", "amyloid nucleation score": "inactive"},
      {"substance": "IFLNLLSRGFGLGRELKCRC", "amyloid nucleation score": "inactive"},
      {"substance": "SWASQWLFTPLSTVRSYIIL", "amyloid nucleation score": "inactive"},
      {"substance": "KSGRSCYIFVYMWQLTVYSG", "amyloid nucleation score": "inactive"},
      {"substance": "TYVRHFVIRFMREGRSLGGR", "amyloid nucleation score": "inactive"},
      {"substance": "WCSSWSRILTQVACVRHRKW", "amyloid nucleation score": "0.926 ± 0.14"},
      {"substance": "TFFSYSRTALGATYYSLIIC", "amyloid nucleation score": "inactive"},
      {"substance": "TACMRNVRTNIGKHTSQYLH", "amyloid nucleation score": "inactive"},
      {"substance": "PLKGDTVSYCGV", "amyloid nucleation score": "inactive"},
      {"substance": "SEYMNLYTVTTHRTPS", "amyloid nucleation score": "inactive"},
      {"substance": "GIYSI", "amyloid nucleation score": "inactive"},
      {"substance": "FLMWVSR", "amyloid nucleation score": "1.08 ± 0.12"},
      {"substance": "LLHTTLA", "amyloid nucleation score": "inactive"},
      {"substance": "RTDFHPLYLILWNQRK", "amyloid nucleation score": "1.9 ± 0.098"},
      {"substance": "QDVAFAAEYELTKCSVLFSN", "amyloid nucleation score": "inactive"},
      {"substance": "MKYYVR", "amyloid nucleation score": "inactive"},
      {"substance": "AGAGLNKLSVLTVTTLLMIL", "amyloid nucleation score": "inactive"},
      {"substance": "QASIVSTG", "amyloid nucleation score": "-0.926 ± 2.4"},
      {"substance": "LNYFISLSGRSLPVSCNQIY", "amyloid nucleation score": "inactive"},
      {"substance": "IVVEQLHDWDIPMKGTTFRS", "amyloid nucleation score": "inactive"},
      {"substance": "IKLVIANCNYMMYVEMV", "amyloid nucleation score": "inactive"},
      {"substance": "LWLVIN", "amyloid nucleation score": "inactive"},
      {"substance": "CKCVNLQFAVTIHCGGFVPF", "amyloid nucleation score": "2.52 ± 0.072"},
      {"substance": "AIELIFVLWAFAHCAPCFEL", "amyloid nucleation score": "inactive"},
      {"substance": "FPDLVVYSS", "amyloid nucleation score": "inactive"},
      {"substance": "PTHILPYLVD", "amyloid nucleation score": "inactive"},
      {"substance": "RWCVM", "amyloid nucleation score": "0.14 ± 0.56"},
      {"substance": "LEALSLDVNDVVRQYSNSEG", "amyloid nucleation score": "inactive"},
      {"substance": "ASQDI", "amyloid nucleation score": "inactive"},
      {"substance": "ISFCYALCCNKMKRLLARCK", "amyloid nucleation score": "inactive"},
      {"substance": "WANMQETFWRMWTRPVLTCG", "amyloid nucleation score": "inactive"},
      {"substance": "LVFHYRARKGLSIIG", "amyloid nucleation score": "inactive"},
      {"substance": "PYQDIMNSQESGGDE", "amyloid nucleation score": "inactive"},
      {"substance": "ASHMMQRIMTRQ", "amyloid nucleation score": "-0.308 ± 0.84"},
      {"substance": "VSLPSVIKYNDS", "amyloid nucleation score": "inactive"},
      {"substance": "LLGVLDSLMRRFMNHINETG", "amyloid nucleation score": "inactive"},
      {"substance": "FYVSSTP", "amyloid nucleation score": "inactive"},
      {"substance": "VSVLYYLKY", "amyloid nucleation score": "0.132 ± 0.28"},
      {"substance": "RHLMYPNRNMMVWSSFSDLG", "amyloid nucleation score": "inactive"},
      {"substance": "FFSSPFMFPASGATVPQRFQ", "amyloid nucleation score": "inactive"},
      {"substance": "DFFNWWSSVWFYLLMGRKVE", "amyloid nucleation score": "inactive"}
    ]}
  ]
}
